Experiments:
[1] = target: torsinA (endogenous, mouse fibroblasts) (mouse (endogenous in MFs)) (UniProt Q9ER39); assay: co-IP
[2] = target: YFP-human-nesprin-3 (human) (UniProt Q6ZMZ3); assay: co-IP
Sequence of YFP-human-nesprin-3 (human) (Q6ZMZ3 whole entry): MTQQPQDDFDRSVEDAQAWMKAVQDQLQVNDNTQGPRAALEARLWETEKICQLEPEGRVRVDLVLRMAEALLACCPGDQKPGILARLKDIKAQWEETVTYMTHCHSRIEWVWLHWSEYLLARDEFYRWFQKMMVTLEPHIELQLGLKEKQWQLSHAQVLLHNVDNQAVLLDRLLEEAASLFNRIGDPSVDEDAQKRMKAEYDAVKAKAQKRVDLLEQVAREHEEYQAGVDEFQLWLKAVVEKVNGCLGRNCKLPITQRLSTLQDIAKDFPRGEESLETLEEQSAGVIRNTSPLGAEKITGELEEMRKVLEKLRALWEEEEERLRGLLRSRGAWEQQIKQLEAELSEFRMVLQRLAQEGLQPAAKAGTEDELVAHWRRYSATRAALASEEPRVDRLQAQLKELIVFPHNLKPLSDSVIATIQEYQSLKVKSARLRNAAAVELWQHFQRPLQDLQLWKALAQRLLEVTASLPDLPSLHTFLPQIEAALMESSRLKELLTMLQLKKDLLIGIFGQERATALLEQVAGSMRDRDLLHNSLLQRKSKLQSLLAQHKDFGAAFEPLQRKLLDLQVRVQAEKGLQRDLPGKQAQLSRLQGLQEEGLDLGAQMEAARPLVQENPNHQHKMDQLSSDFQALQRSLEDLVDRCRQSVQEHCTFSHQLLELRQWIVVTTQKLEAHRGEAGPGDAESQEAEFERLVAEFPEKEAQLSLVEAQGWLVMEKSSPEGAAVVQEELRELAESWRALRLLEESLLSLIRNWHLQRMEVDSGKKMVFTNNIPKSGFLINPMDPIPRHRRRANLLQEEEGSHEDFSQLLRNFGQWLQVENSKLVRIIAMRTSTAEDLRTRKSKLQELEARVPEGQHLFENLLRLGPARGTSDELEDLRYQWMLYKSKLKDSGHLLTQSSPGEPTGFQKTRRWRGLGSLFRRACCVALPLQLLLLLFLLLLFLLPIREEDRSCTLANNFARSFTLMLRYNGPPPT

Sequence of torsinA (endogenous, mouse fibroblasts) (mouse (endogenous in MFs)) (Q9ER39 21-333): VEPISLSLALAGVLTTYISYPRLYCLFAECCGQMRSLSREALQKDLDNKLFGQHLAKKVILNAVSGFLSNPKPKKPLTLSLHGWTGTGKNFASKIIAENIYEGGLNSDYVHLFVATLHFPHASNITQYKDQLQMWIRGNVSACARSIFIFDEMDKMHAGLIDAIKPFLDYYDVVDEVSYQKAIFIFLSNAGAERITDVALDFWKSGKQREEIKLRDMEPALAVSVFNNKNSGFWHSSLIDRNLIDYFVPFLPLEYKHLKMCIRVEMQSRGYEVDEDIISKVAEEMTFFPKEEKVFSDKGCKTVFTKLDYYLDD
Sequence of torsinAΔE (human, expressed in 293T cells) (O14656 21-332, stated change not applied): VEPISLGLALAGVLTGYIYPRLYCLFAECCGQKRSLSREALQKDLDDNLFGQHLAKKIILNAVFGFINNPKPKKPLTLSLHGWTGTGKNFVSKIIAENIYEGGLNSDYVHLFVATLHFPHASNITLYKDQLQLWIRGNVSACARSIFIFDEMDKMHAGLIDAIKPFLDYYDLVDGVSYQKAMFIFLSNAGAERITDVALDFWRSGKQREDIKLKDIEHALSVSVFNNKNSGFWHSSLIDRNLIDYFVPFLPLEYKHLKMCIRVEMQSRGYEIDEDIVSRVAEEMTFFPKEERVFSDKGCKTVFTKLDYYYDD

Substance | percentage immunoprecipitated from lysates [1] | percentage immunoprecipitated with YFP-nesprin-3 in the presence of ATP [2]
plectin (endogenous, mouse fibroblasts), Q9QXS1 1-4691 | 7% | –
torsinAΔE (human, expressed in 293T cells) (from UniProt O14656 21-332) (natural protein) | – | 25%
